These results are taken from article PMC2715281 (Nature structural & molecular biology, 2009).

The target of series [1] is T1, RAG1 NBD (mouse (murine), UniProt P15919 389-464).
T1 sequence: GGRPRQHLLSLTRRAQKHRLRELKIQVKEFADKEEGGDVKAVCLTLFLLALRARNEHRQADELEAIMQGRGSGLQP
The experiment in a line: crystal structure.

The target of series [2] is T1, RAG1 NBD. Nature of the series: crystal structure. This is another data set of the same source.
Series [3] concerns the target T2, MBP-RAG1 core WT;GST-RAG2 core (mouse (murine);mouse (murine), UniProt P15919;P21784 384-1008;1-383, |).
T2 sequence 1: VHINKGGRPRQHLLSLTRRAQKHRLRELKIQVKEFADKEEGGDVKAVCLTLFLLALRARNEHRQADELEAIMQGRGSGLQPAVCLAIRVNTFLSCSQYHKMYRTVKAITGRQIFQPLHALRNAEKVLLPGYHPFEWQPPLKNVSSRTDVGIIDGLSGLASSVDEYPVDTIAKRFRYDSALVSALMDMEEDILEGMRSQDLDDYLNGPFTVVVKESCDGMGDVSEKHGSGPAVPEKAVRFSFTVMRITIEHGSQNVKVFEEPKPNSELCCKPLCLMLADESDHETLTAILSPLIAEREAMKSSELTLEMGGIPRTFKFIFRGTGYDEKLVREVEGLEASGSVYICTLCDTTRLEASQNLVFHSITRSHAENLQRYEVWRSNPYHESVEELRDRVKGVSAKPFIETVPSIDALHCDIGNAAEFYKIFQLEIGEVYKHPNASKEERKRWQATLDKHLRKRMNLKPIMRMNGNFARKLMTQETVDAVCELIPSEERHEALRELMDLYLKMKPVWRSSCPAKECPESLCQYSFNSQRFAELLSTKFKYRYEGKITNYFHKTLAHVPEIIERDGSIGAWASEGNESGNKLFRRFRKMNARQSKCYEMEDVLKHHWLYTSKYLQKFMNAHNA
T2 sequence 2: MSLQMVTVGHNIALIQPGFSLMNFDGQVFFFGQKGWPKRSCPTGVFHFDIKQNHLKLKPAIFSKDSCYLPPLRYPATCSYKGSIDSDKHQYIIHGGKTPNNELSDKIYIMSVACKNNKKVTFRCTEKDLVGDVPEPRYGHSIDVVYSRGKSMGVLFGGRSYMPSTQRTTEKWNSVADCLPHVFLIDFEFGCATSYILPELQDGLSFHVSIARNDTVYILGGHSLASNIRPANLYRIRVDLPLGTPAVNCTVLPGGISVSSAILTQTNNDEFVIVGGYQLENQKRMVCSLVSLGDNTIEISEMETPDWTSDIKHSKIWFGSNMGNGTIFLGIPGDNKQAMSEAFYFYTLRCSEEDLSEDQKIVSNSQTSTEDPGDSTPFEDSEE
Nature of the series: EMSA.

For series [4], the target named is MBP-RAG1 core WT;GST-RAG2 core;His-HMGB1 (mouse (murine);mouse (murine);human, UniProt P15919;P21784;P09429 384-1008;1-383;1-215, ||). The experiment in a line: EMSA.
Series [5] deals with the molecule itself. Nature of the series: SEC + SEC-MALS. (In general: SEC sorts molecules by how far they enter the pores of the column.)

Read-outs that look alike come from different tables or passages of the source.

MBP-RAG1 core WT;GST-RAG2 core;His-HMGB1, sequence (P09429 whole entry, one chain of several): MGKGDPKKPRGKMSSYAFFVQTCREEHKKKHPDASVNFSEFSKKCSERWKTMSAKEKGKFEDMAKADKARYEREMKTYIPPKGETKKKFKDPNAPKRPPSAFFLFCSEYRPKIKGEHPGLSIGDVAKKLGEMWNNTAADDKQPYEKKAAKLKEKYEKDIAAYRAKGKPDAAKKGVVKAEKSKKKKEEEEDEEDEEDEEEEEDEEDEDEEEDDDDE

B1: Native crystal 14-mer (nonamer plus 4 bp of 12RSS spacer) (dsDNA)
DNA 1: ACTTAACAAAAACC
DNA 2: TGGTTTTTGTTAAG
With B1, in series [1], the binding result is listed as “binds”.

B2: 56DNA crystal 14-mer (symmetrized) (dsDNA)
DNA 1: AGTTTTCAGAAACC
DNA 2: AGGTTTCTGAAAAC
On to B2, for which, in series [2], the binding result is “binds”.

B3: Consensus 12RSS (dsDNA)
DNA 1: GATCTGGCCTGTCTTACACAGTGATACAGACCTTAACAAAAACCTGCACTCGAGCGGAG
DNA 2: CTCCGCTCGAGTGCAGGTTTTTGTTAAGGTCTGTATCACTGTGTAAGACAGGCCAGATC
As for B3, the binding signal in series [3] is 1 relative to WT. The binding result in series [4] is “binds”.

B4: His6-tagged RAG1 nonamer-binding domain (murine RAG1 residues 389-464) (domain or fragment, UniProt P15919 389-464, looked up)
chain: T1 sequence
On to B4, for which the stoichiometry N (usually the number of molecules, sites or subunits per partner or assembly) in series [5] stood at 2.
